Results taken from the nanobody polyreactivity screen of Harvey et al. (2022).

Experiment: yeast display, Sf9 membrane polyspecificity reagent, FACS + sequencing; frameworks hold sequencing errors
Summary of the method: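 Polyreactivity labels are assigned by the sorting gate from which each nanobody was recovered. The gates were low and high (top ~1%), set on anti-HA fluorescence for expression and streptavidin fluorescence for reagent binding. Before sorting, galactose-induced (36–48 hours) yeast display cells were stained for 1 hour at 4 °C with 10% biotinylated, detergent-solubilized Sf9 membrane reagent.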

| Sequence | polyreactivity (PSR sort gate) |
| --- | --- |
| QVQLVESVGGLVQAGGSLRLSCAASGFTFHDYAMGWYRQAPGKERELVAAIYFSGGRTYYADSVKGRFTISRDNAKNTVYLQMNSLKPEDNAVYYCNVPYYSFRELSSYYWGQGTQVTVSS | high polyreactivity |
| QVQLVESVGGLVQAGGSLRLSCAASGFTFRRYAMGWYRQAPGKERELVAAISYSGGITYYADSVKGRFTISRDNAKNTVYLQMNSLKPEDTAVYYCAADYFAPYKTYEYWGQGTQVTVSS | high polyreactivity |
| QVQLVESVGGLVQAGGSLRLSCAASGFTFSSNAMGWYRQAPGKERELVAAISGTGGSTYYSDSVKVRITISRDNAKNTFYLLMNRLKPDDKAVYYCARVYNFYTSGYDYWGKGTQVTVSS | high polyreactivity |
| QVQLVESVGGLVQAGGSLRLSCAASGFTFTPYGMGWYRQAPGKERELVAAITWNGGRTYYADSVKGRFTISRDNAKNTVYLQMNSLKPEDTAVYYCAAVAWSWQKRGYWGQGTQVTVSS | high polyreactivity |
| QVQLVESVGGLVQAGGSLRLSCAASGFTFYTYAMGWYRQAPGKERELVAAINQRGGRTYYADSVKGRFTISRDNAKNTVYLQMNSLKPEDTAVYYCAKSPPPKTRYDYWGQGTQVTVSS | high polyreactivity |
| QVQLVESVGGLVQAGGSLRLSCAASGFTLFFYAMGWYRQAPGKERELVARITSRAGRTYYADSVKGRFTISRDNAKNTVYLQMNSLKPEDNAVFYCNTRDFSGYVHALSLYDYWGQGTQVTVSS | high polyreactivity |
| QVQLVESVGGLVQAGGSLRLSCAASGGIFDTYVMGWYRQAPGKERELVAAISSSGSTTYADSVKGRFTISRDNAKNTVYLQMNSLKPEDTAVYYCNADYSTIWRYDYWGQGTQVTVSS | low polyreactivity |
| QVQLVESVGGLVQAGGSLRLSCAASGGIFWVYAMGWYRQAPGKERELVADISIADSTNYADSVKGRFTISRDNAKNTVYLQMNSLKPEDTAVYYCNAVPSQHDEFDYWGQGTQVTVSS | low polyreactivity |
| QVQLVESVGGLVQAGGSLRLSCAASGIIFVYYVMGWYRQAPGKERELVASIDGSGGSTNYADSVKGRFTISRDNAKNTVYLQMNSLKPEDTAVYYCNADNILYWSTLDYWGQGTQVTVSS | low polyreactivity |
| QVQLVESVGGLVQAGGSLRLSCAASGIIFWWYAIGWYRQAPGKERELVAAINWSGSSTYYADSVKGRFTISRDNAKNTVYLQMKSLKPEDTAVYYCATAGIIQAESEYLSGYDYWGQGTQVTVSS | high polyreactivity |
| QVQLVESVGGLVQAGGSLRLSCAASGINFGFNTMGWYRQAPGKERELVAAINGSDGSTYADSVKGRFTISRDNAKNTVYLQMNSLKPEDTAVYYCAADAYDGEGTYPFEYWGQGTQVTVSS | low polyreactivity |
| QVQLVESVGGLVQAGGSLRLSCAASGITFYYNAMGWSRQAPGKERELVAVITSGGSTNYADSVKGRFTISRDNAKNTVYLQMNSLKPEDTAVYYCATDKSYSSWSAQYDYWGQGTQVTVSS | low polyreactivity |
| QVQLVESVGGLVQAGGSLRLSCAASGITSGTYAMGWYRQAPGKERELVAAISSSGGRTYYADSVKGRFTISRDNAKNTVYLQMNSLKPEDTAVYYCAARIRLSLRTGYDYWGQGTQVTVSS | high polyreactivity |
| QVQLVESVGGLVQAGGSLRLSCAASGLIFIISTMGWDRQAPGKERELVAAITRRGGITYYADSVKGRFTISRDNAKNTVYLQMNSLKPEDTAVYYCAVVRPYNIWYDYWGQGTQVTVSS | low polyreactivity |
| QVQLVESVGGLVQAGGSLRLSCAASGRIFGTNAMGWYRQAPGKERELVADITSGGSTNYADSVKGRFTISRDNAKNTVYLQMNSLKPEDTAVYYCAADVIGDLRWYRDEYWGQGTQVTVSS | low polyreactivity |
| QVQLVESVGGLVQAGGSLRLSCAASGRIFPWYAKGWYRQAPGKERELVAAIRWRGGGTYYADSVKGRFTISRDNAKNTVYLQMNSLKPEDTAVYYCAARRPAKGMGYWGQGTQVTVSS | high polyreactivity |
| QVQLVESVGGLVQAGGSLRLSCAASGRIFSTYAMGWYRQAPGKERELVAAIRFSGTSTYADSVKGRFTISRDNAKNTVYLQMNSLKPEDTAVDYCAAQRYTYYRRYGYLGQGTQVTVSS | high polyreactivity |
| QVQLVESVGGLVQAGGSLRLSCAASGRIFVHYVMGWYRQAPGKERELVAAISRSGGRTYYADSVKGRFTISRDNAKNSVYLQMNSLKPEDTAVYYCATDASTYKYDYWGQGTQVTVSS | high polyreactivity |
| QVQLVESVGGLVQAGGSLRLSCAASGRIFWNYAMGWYRQATGKERELVASISYRGGSTYYADSVKGRFTISRDNAKNTVYLQMNSLKPEDTAVYYCAARTRQARRTDYGYWGQGTQVTVSS | high polyreactivity |
| QVQLVESVGGLVQAGGSLRLSCAASGRIFYRYGMGWYRQAPGKERELVASITRGGSTYYADSVKGRFTISRDNAKNTVYLQMNSLKPEDTAVYYCATKSSAGYDYWGQGTQVTVSS | low polyreactivity |
| QVQLVESVGGLVQAGGSLRLSCAASGRILYLNVMGWYRQAPGKERELVASITVSGGITYYADSVKGRFTISRDNAKNTVYLQMNSLKPEDTAVYYCAVDAYPPFFYFTSVWFSYDYWGQGTQVTVSS | low polyreactivity |
| QVQLVESVGGLVQAGGSLRLSCAASGRTFAAYAMGWYRQAPGKERELVAGITSSSVRTYYADSVKGRFTISRDNAKNTVYLQMNSLKPEDTAVYYCNARADGSSSRWRPYSKFYYWGQGTQVTVSS | low polyreactivity |

| Sequence | polyreactivity (PSR sort gate) |
| --- | --- |
| QVQLVESVGGLVQAGGSLRLSCAASGRTFAGNAMGWYRQAPGKEREFVASITASGVNTYYADSVKGRFTISRDNAKNTVYLQMNSLKPEDTAVYYCNKRNRWTPFYTYDYWGQGTQVTVSS | low polyreactivity |
| QVQLVESVGGLVQAGGSLRLSCAASGRTFAYYTMGWYRQAPGKERELVARISGYGGSTYYADSVKGRFTISRDNAKNTVYLQMNSLKPEDTAVYYCNVVGAYYRYDYWGQGTQVTVSS | high polyreactivity |
| QVQLVESVGGLVQAGGSLRLSCAASGRTFFPYAMGWYRQAPGKEREFVAAITKTDDSTYYADSVKGRFTISRDNAKNTVYLQMNSLKPEDTAVYYCNAGDTQIRFYYWGQGTQVTVSS | low polyreactivity |
| QVQLVESVGGLVQAGGSLRLSCAASGRTFFYNAMGWYRQAPGKERELVAAIDWSGDSTYYADSVKGRFTISRDNAKNTVYLQMNSLKPEDTAVYYCAARRKNRRDYDYYYWGQGTQVTVSS | high polyreactivity |
| QVQLVESVGGLVQAGGSLRLSCAASGRTFGTYAMGWYRQAPGKERELVAAISTRGGRTFYADSVKGRFTISRDNAKNTVYLQMNSLKPEDTAVYYCAKGVFTWGVFRVGIRDDYWGQGTQVTVSS | high polyreactivity |
| QVQLVESVGGLVQAGGSLRLSCAASGRTFHYYVMGWYRQEPGKEGELVAAISRSGGNTYYADSVKGRFTISRDNAQNTVYLQMNSLKPEDTADYYCAAALSAYVKWDYYYWGQGTQVTVSS | high polyreactivity |
| QVQLVESVGGLVQAGGSLRLSCAASGRTFLYYTMGWYRQAPGKERELVAAISTSGGSTNYADSVKGRFTISRDNAKNTVYLQMNSLKPEDTAVYYCAAETSTNPEAYEYWGQGTQVTVSS | low polyreactivity |
| QVQLVESVGGLVQAGGSLRLSCAASGRTFSFYAMGRYRQRQGKESELVAGIDGNDGSTYYADSVKGRFTISRDNAKNTVYIQMNSLKPEDTAVYYCNAEKWTGQYCCYYRMYYYWGQGTQVTVSS | low polyreactivity |
| QVQLVESVGGLVQAGGSLRLSCAASGRTFSVYTMGWYRQAPGKERELVASINWSGGRTYYADSVKGRFTISRDNAKNTVYLQMNSLKPEDTAVYYCAATGWRTLYDYWGQGTLVTVSS | high polyreactivity |
| QVQLVESVGGLVQAGGSLRLSCAASGRTLSYYAMGRYRQAPGKVRELVAAISRRGGSTYYADSVKGRFTISRDKAKNTVYLQMNCLQSKDTAFYYCAATVGNAADYDYGYWGQGTQVTVSS | high polyreactivity |
| QVQLVESVGGLVQAGGSLRLSCAASGSIFDSYAMGWYRQAPGKERELVADISSGGSTYYADSVKGRFTISRDNAKNTVYLQMNSLKPEDTAVYYCAAQYVYYFYGDEAFTDDYWGQGTQVTVSS | low polyreactivity |
| QVQLVESVGGLVQAGGSLRLSCAASGSIFGYNAMGWYRQAPGKERELVAVINASGASTYYADSVKGRFTISRDNAKNTVYLQMNSLKPEDTAVYYCAKDPFPFPGGDDWGQGTQVTVSS | low polyreactivity |
| QVQLVESVGGLVQAGGSLRLSCAASGSIFGYYAMGWYRQAPGKDRELVAGINWSGGSTYADSVKGRFTISRDNAKNTVYIQMNSLKPEDTAVYYCNRRYRKDSSAKYDYWGQGTQVTVSS | high polyreactivity |
| QVQLVESVGGLVQAGGSLRLSCAASGSIFSVNAMGWYRQAPGKERELVASINFRGGRTYYADSVKGRFTISRDNAKNTVYLQMNSLKPEDTAVYYCAAVITQTDTGYGPSFRVYYWGQGTQVTVSS | high polyreactivity |
| QVQLVESVGGLVQAGGSLRLSCAASGSIFWFYAMGWYRQAPGKVRELVAAITSTGGTYYADSVKGRFTISRDNAKNTVYLQMNSLKPEDTSVYYCAADRFGVQGAYLYDYWGQGTQVTVSS | low polyreactivity |
| QVQLVESVGGLVQAGGSLRLSCAASGSTFAGNAMGWSRQAPGKERELVAAIDSSTGSTYYADSVKGRFTISRDNAKNTVYLQMNSLKPEDTSVYYSNKTSFLVKLDYWGHGTQVTVSS | low polyreactivity |
| QVQLVESVGGLVQAGGSLRLSCAASGSTFEIYAMGWYRQAPGKERELVAVISGGDGSTYYADSVKGRFTISRDNAKNTVYLQMNSLKPEDTAVYYCAADYISPGYWDGEYDCWGQGTQVTVSS | low polyreactivity |
| QVQLVESVGGLVQAGGSLRLSCAASGSTFRINAMGWYRQAPGKEMELVADINSGGNTTYADSVKGRFTISRDNAKNTVYLQMNSLKPEDTAVYYCAAEPVFDLWEFLLDYGYDYWGQGTQVTLSS | low polyreactivity |
| QVQLVESVGGLVQAGGSLRLSCAASGSTFVPYAMGWYRQAPGKERELVAAITTSGGNTYYADSVKGRFTISRDNAKNTVYLQMNSLKPEDTAVYYCAADTYRSFDYWGQGTQVTVSS | low polyreactivity |
| QVQLVESVGGLVQAGGSLRLSCAASGSTFYFNDMGWYRQAPGKERELVAAISRGGSTYYADSVKGRFTISRDTAKNTVYLQMNSLKPEDTAVYYCANGSYVRNYGYWGQGTQVTVSS | high polyreactivity |
| QVQLVESVGGLVQAGGSLRLSCAASGSTFYPNAMGWYRQAPGKEREFVAAITWSGGRTYYADSVKGRFTNSRDNAKNTVYLQMNSLKPEDTAVYYCSKGGYQHYCGQGTQVTVSS | high polyreactivity |
